Measurements reported in patent US20040229290A1 (priority 2003, published 2004).
Where a chain is given by its changes, count along the chain named. Where two headings read alike, the source gives them in different places.

B1: histidine-binding protein (protein, UniProt P0AEU0 23-260, looked up)
Histidine-binding periplasmic …: AIPQNIRIGTDPTYAPFESKNSQGELVGFDIDLAKELCKRINTQCTFVENPLDALIPSLKAKKIDAIMSSLSITEKRQQEIAFTDKLYAADSRLVVAKNSDIQPTVESLKGKRVGVLQGTTQETFGNEHWAPKGIEIVSYQGQDNIYSDLTAGRIDAAFQDEVAASEGFLKQPVGKDYKFGGPSVKDEKLFGVGTGMGLRKEDNELREALNKAFAEMRADGTYEKLAKKYFDFDVYGG
B2: Lac.G2: GBP variant designed to bind L-lactate (protein)
chain: ADTRIGVTIKKYDMNKMSVVRKAIEQDAKAAPDVQLLMNDSQNDQSKQNDQIDVLLAKGVKALAINLVDPAAAGTVIEKARGQNVPVVFFKLEPSRKALDSYDKAYYVGTDSKESGIIQGDLIAKHWAANQGWDLNKDGQIQFVLLKGEPGKPKAEAMTTYVIKELNDKGIKTEQLQLDTAMKDTAQAKDKMDAWLSGPNANKIEVVIANNDAMAMGAVEALKAHNKSSIPVFGVAALPEALALVKSGALAGTVLSDANNQAKATFDLAKNLADGKGAADGTNWKIDNKVVRVPYVGVDKDNLAEFSKK
B3: Lac.G1 (protein)
chain: B2 chain with M14K, K16F, K152M, K154H, M158K, S256D
B4: arabinose-binding protein (protein, UniProt P02924 24-329, looked up)
L-arabinose-binding …: ENLKLGFLVKQPEEPWFQTEWKFADKAGKDLGFEVIKIAVPDGEKTLNAIDSLAASGAKGFVICTPDPKLGSAIVAKARGYDMKVIAVDDQFVNAKGKPMDTVPLVMMAATKIGERQGQELYKEMQKRGWDVKESAVMAITANELDTARRRTTGSMDALKAAGFPEKQIYQVPTKSNDIPGAFDAANSMLVQHPEVKHWLIVGMNDSTVLGGVRATEGQGFKAADIIGIGINGVDAVSELSKAQATGFYGSLLPSPDVHGYKSSEMLYNWVAKDVEPPKFTEVTDVVLITRDNFKEELEKKGLGGK
B5: glutamine-binding protein (protein, UniProt P0AEQ3 23-248, looked up)
Glutamine-binding periplasmic …: ADKKLVVATDTAFVPFEFKQGDKYVGFDVDLWAAIAKELKLDYELKPMDFSGIIPALQTKNVDLALAGITITDERKKAIDFSDGYYKSGLLVMVKANNNDVKSVKDLDGKVVAVKSGTGSVDYAKANIKTKDLRQFPNIDNAYMELGTNRADAVLHDTPNILYFIKTAGNGQFKAVGDSLEAQQYGIAFPKGSDELRDKVNGALKTLRENGTYNEIYKKWFGTEPK
B6: Lac.R1: RBP variant designed to bind L-lactate (protein)
chain: KDTIALVVSTLNVPARVSLKDGAQKEADKLGYNLVVLDSQNNPAKELANVQDLTVRGTKILLINPTDSDAVGNAVKMANQANIPVITLSSQATKGEVVSHIASDNVLGGKIAGDYIAKKAGEGAKVIELQGIAGTSKAREMGEGFQQAVAAHKFNVLASQPADKDRIKGLNVMQNLLTAHPDVQAVFAQIDEMALGALRALQTAGKSDVMVVGFSGTPDGEKAVNDGKLAATIATLPDQIGAKGVETADKVLKGEKVQAKYPVDLKLVVKQ
B7: ribose-binding protein (protein)
chain: KDTIALVVSTLNNPFFVSLKDGAQKEADKLGYNLVVLDSQNNPAKELANVQDLTVRGTKILLINPTDSDAVGNAVKMANQANIPVITLDRQATKGEVVSHIASDNVLGGKIAGDYIAKKAGEGAKVIELQGIAGTSAARERGEGFQQAVAAHKFNVLASQPADFDRIKGLNVMQNLLTAHPDVQAVFAQNDEMALGALRALQTAGKSDVMVVGFDGTPDGEKAVNDGKLAATIAQLPDQIGAKGVETADKVLKGEKVQAKYPVDLKLVVKQ

Legend:
NovoTim1.0 = assay type: biochemical
wild-type TIM = wild-type TIM (Homo sapiens, UniProt P60174); settings: cited from earlier work
[1] = read-out: DHAP → GAP KM; cited from earlier work
[2] = read-out: KM (μM), second group; cited from earlier work
[3] = assay type: physicochemical; settings: pH 7
[4] = assay type: binding; settings: read-out: K1 (μM) L-lac
[5] = assay type: binding; settings: read-out: K1 (μM) D-lac
[6] = assay type: binding; settings: read-out: K1 (μM) Pyr
[7] = read-out: affinities of wild-type receptors for cognate ligands; cited from earlier work

Sequence of wild-type TIM (P60174 whole entry): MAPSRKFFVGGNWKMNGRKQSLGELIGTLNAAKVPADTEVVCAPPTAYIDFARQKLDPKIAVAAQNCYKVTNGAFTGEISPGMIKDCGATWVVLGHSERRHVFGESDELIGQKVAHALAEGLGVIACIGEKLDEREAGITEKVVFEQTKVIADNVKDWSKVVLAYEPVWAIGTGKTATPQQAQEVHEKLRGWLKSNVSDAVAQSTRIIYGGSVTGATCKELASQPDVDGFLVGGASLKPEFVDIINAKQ

| Molecule | Tm [3] [°C] | Kd [4] [µM] | Kd [5] [µM] | Kd [6] [µM] | further results |
| --- | --- | --- | --- | --- | --- |
| O=C(O)COP(=O)(O)O [phosphoglycolate] | – | – | – | – | Ki (NovoTim1.0): 130 µM; Ki (wild-type TIM): 4 µM |
| triose phosphate isomerase [wtTIM] | – | – | – | – | Km [1]: 1600 µM; Km [2]: 390 µM |
| B1 | 58 | – | – | – | – |
| B2 | 50 | 2.1 | 55 | 115 | – |
| B3 | – | 2.8 | 205 | 255 | – |
| B4 | 54 | – | – | – | – |
| B5 | 62 | – | – | – | – |
| B6 | – | 7.4 | 40 | 40 | – |
| B7 | 58 | – | – | – | Kd [7]: 0.2 µM |
